From article PMC7896290

Key:
[1] = biological target: anti-DNP wild-type human monoclonal IgG1 (human); assay: native MS
[2] = biological target: anti-DNP IgG1-RGY (human IgG1 with E345R, E430G, S440Y) (human); assay: high-speed atomic force microscopy
[3] = biological target: human monoclonal IgG2 (human); assay: native MS
[4] = biological target: human monoclonal IgG4 (human); assay: native MS

Question: Which stoichiometry N (SpA-B per IgG) [1] does the source give for “SpA-B domain wild type (single B-domain of staphylococcal protein A) (domain or fragment)” here?
Answer: 2

Question: And the reduction of IgG1-RGY hexamers [2]?
Answer: 50%

Question: “staphylococcal protein A, soluble construct containing all five Ig-binding domains (domain or fragment)” was tested. Which stoichiometry N [3] did it give?
Answer: 1 SpA per IgG

Question: What about the stoichiometry N [4] of the same substance?
Answer: 1 SpA per IgG

Question: And the stoichiometry N [1]?
Answer: 1 SpA per IgG
